Experimental data: patent US20200062828A1 (PANASONIC INTELLECTUAL PROPERTY MANAGEMENT, published 2020)

Columns and labels:
[1] = molecular target: T1, noro antigen (recombinant of the p-domain protein of the GII/4 norovirus (NSW-2012)) (GII/4 norovirus (NSW-2012), UniProt P54635 1-539); experiment: SPR (T200), VHH immobilized, noro antigen as analyte added serially
T1 construct: Viral capsid protein antigen; also called antigen of the norovirus; recombinant p-domain protein
T1 chain: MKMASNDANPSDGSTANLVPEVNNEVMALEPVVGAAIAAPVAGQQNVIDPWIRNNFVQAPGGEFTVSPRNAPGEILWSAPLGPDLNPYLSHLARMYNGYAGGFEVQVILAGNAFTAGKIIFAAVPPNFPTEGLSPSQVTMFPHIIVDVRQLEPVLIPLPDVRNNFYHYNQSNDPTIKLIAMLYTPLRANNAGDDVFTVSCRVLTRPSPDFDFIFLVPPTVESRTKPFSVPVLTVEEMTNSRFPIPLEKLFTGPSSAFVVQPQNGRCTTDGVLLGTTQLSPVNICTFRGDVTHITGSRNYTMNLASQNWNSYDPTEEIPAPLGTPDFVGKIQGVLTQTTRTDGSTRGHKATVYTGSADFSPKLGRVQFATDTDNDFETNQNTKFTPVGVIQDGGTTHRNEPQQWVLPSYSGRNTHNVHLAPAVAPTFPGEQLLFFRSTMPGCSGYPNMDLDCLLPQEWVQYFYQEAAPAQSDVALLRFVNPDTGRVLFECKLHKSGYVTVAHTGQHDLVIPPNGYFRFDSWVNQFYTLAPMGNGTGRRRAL

[2] = molecular target: T1, noro antigen (recombinant of the …); experiment: SPR (T200, CM5), noro antigen immobilized, VHH as analyte, separate concentrations
[3] = molecular target: T1, noro antigen (recombinant of the …); experiment: SPR (T200, CM5), noro antigen immobilized, VHH as analyte added serially
[4] = molecular target: T2, VLP noro antigen derived from the norovirus GII/4, composed by associating 90 dimers of VP1 each including … (norovirus GII/4, UniProt P54635 1-539); experiment: SPR (T200, CM3), VLP noro antigen immobilized, antibody as analyte
T2 construct: Virus-like particle; also called solid phase VLP
T2 chain: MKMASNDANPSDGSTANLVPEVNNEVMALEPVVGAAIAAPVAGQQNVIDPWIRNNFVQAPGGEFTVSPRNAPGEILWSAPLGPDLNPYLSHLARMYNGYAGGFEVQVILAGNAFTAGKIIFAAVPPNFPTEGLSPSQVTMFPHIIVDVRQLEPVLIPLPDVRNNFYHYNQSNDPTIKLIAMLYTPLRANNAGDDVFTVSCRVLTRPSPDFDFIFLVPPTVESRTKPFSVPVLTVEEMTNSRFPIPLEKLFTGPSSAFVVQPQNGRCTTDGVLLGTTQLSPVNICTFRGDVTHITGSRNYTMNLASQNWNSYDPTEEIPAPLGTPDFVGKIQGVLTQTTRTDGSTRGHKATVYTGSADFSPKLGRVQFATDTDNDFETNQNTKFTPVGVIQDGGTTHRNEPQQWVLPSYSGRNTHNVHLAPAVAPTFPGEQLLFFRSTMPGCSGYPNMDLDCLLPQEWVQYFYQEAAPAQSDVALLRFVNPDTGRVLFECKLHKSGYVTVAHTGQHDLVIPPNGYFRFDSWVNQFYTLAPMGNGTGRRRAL

B1: VHH antibody including the amino acid sequence represented by SEQ ID NO: 42 (VHH)
VHH: ELQLVESGGGAVHTGGSLRLSCAVSGRTDIRYAMGWFRQAPGREREFVAAISWNGDDTFYADSVKGRFTISRDNAKNAVSLQMDSLRPEDTAVYYCNARNSYAAFARAYWGQGTQVTVSS
notes: also called anti-noro antibody; not shown: C-terminal 3xFlag tag and His tag from the modified pET22b(+) vector
For B1, the Kd [1] was 13.1 nM and the Kd [2] was 63.8 nM.

B2: VHH antibody including the amino acid sequence represented by SEQ ID NO: 40 (VHH)
VHH: QLQLVEPGGGVVQPGGSLRLSCLASGSDFSLGAMGWYRQAPGKQRELVAIINRASWTRYADSVKGRFTISRDNSKNLVFLQMNNLKPDDTAVYYCNAIATSASGRGVTSTSWGQGSQVTVSS
notes: not shown: C-terminal 3xFlag tag and His tag from the modified pET22b(+) vector
Work on B2 yielded a Kd [1] of 9.57 nM and a Kd [3] of 9.5 nM.

B3: dimer antibody (SEQ ID NO: 99) in which the structure domain of SEQ ID NO: 39 and the structure domain of SEQ ID NO: 38 are connected from N to C via a linker (VHH)
chain: QLQLVESGGGLVQAGGSLRLSCVASGFPFASSAMAWFRQAPGKEREFVASISYRGITTYYAQPVKGRFTMSRDNAKNTVYLQMNSLKPEDTAVYYCYAKSIWGNAYWGQGTQVTVSPGGGGSGGGASGGGGSQVQLVESGGGVVQTGGSLRLSCAASGSTFSIGAMGWYRQAPGKQRELVATVNRASRTIYADSVRGRFTISRDNAKNLVYLQMNNLKPEDTAVYYCNVIATSASGRGVTSTSWGQGSQVTVSSEPKTPKPQSASAA
notes: Single-chain tandem heterodimer of two VHH domains (39 then 38); also called Divalent 99
Binder B3 has a Kd [4] of 0.00947 nM, a koff [4] of 0.000356 s⁻¹ and a kon [4] of 3.75e+07 M⁻¹ s⁻¹.

B4: VHH antibody including the amino acid sequence represented by SEQ ID NO: 41 (VHH)
VHH: EVQLVESGGGLVQAGGSLRLSCAVSGRTSSRYVMGWVRQAPGKEREFLAAISWSAGYTFYRDSVKGRFTISRDNAKNTVYLQMNSLKPEDTAVYYCNADENGLGRKRGFGSWGQGTQVTVSS
notes: as for B1
B4 gave a Kd [1] of 4.98 nM and a Kd [2] of 81.6 nM.

B5: dimer antibody (SEQ ID NO: 98) in which the structure domain of SEQ ID NO: 38 and the structure domain of SEQ ID NO: 39 are connected from N to C via a linker (VHH)
chain: QVQLVESGGGVVQTGGSLRLSCAASGSTFSIGAMGWYRQAPGKQRELVATVNRASRTIYADSVRGRFTISRDNAKNLVYLQMNNLKPEDTAVYYCNVIATSASGRGVTSTSWGQGSQVTVSSGGGGSGGGASGGGGSQLQLVESGGGLVQAGGSLRLSCVASGFPFASSAMAWFRQAPGKEREFVASISYRGITTYYAQPVKGRFTMSRDNAKNTVYLQMNSLKPEDTAVYYCYAKSIWGNAYWGQGTQVTVSPEPKTPKPQSASAA
notes: Single-chain tandem heterodimer of two VHH domains (38 then 39); also called Divalent 98
Binder B5 has a Kd [4] of 0.485 nM, a koff [4] of 0.00198 s⁻¹ and a kon [4] of 4.08e+06 M⁻¹ s⁻¹.

B6: VHH antibody including the amino acid sequence represented by SEQ ID NO: 39 (VHH)
VHH: QLQLVESGGGLVQAGGSLRLSCVASGFPFASSAMAWFRQAPGKEREFVASISYRGITTYYAQPVKGRFTMSRDNAKNTVYLQMNSLKPEDTAVYYCYAKSIWGNAYWGQGTQVTVSP
notes: also called Monovalent 65; not shown: C-terminal 3xFlag tag and His tag from the modified pET22b(+) vector
With B6 the Kd [4] was 54.8 nM, the Kd [1] was 15.9 nM and the Kd [3] was 15.8 nM.

B7: VHH antibody including the amino acid sequence represented by SEQ ID NO: 43 (VHH)
VHH: QLQLVESGGGLVQPGGSLRLSCAASGFTLDYYAIGWFRQAPGNEREFVAAISWNGGSTYYADSVKGRFTISRDNAKETVYLQMNSLKPEDTGVYYCNYRPQFGLGYNYWGQGTQVTVSS
notes: as for B1
Work on B7 yielded a Kd [1] of 10.3 nM and a Kd [2] of 5.45 nM.

B8: VHH antibody including the amino acid sequence represented by SEQ ID NO: 38 (VHH)
VHH: QVQLVESGGGVVQTGGSLRLSCAASGSTFSIGAMGWYRQAPGKQRELVATVNRASRTIYADSVRGRFTISRDNAKNLVYLQMNNLKPEDTAVYYCNVIATSASGRGVTSTSWGQGSQVTVSS
notes: Alpaca VHH expressed in E. coli; also called monomer antibody; not shown: C-terminal 3xFlag tag and His tag from the modified pET22b(+) vector
B8 was tested, and the Kd [4] was 149 nM, the koff [4] was 0.0214 s⁻¹ and the kon [4] was 144000 M⁻¹ s⁻¹. For the same binder, the Kd [1] was 4.15 nM and the Kd [3] was 1.15 nM.

B9: dimer antibody having two of the structural domains each having the amino acid sequence represented by SEQ ID NO: 38 (SEQ ID NO: 97) (VHH)
chain: QVQLVESGGGVVQTGGSLRLSCAASGSTFSIGAMGWYRQAPGKQRELVATVNRASRTIYADSVRGRFTISRDNAKNLVYLQMNNLKPEDTAVYYCNVIATSASGRGVTSTSWGQGSQVTVSSGGGGSGGGASGGGGSQVQLVESGGGVVQTGGSLRLSCAASGSTFSIGAMGWYRQAPGKQRELVATVNRASRTIYADSVRGRFTISRDNAKNLVYLQMNNLKPEDTAVYYCNVIATSASGRGVTSTSWGQGSQVTVSSEPKTPKPQSASAA
notes: also called Divalent 97
With B9 the Kd [4] was 0.13 nM, the koff [4] was 0.000302 s⁻¹ and the kon [4] was 2.32e+06 M⁻¹ s⁻¹.
